Patent CN110642952A (SHANGHAI INST OF BIOLOGICAL PRODUCTS CO LTD, dated 2020)
Numbering of substitutions follows the chain as printed.

B1: HER3鼠源单克隆抗体927 (antibody, V domains shown)
VH: EVQLQQSGPELVKPGASVKISCKASGYSFTSYYIHWVKQRPGQGLEWIGWIFPRSGHTNYNEKFKGKATLTADTSSSTAYMQVSSLTSEDSAVYFCARSRDYYGTNAMDYWGQGTSVTVSS
VL: DIVMTQSPSSLTVTAGEKVTMSCKSSQSLFNSGNQKNYLTWYQQKPGQPPKLLIYWASTRESGVPDRFTGSGSGTDFTLTISSVQAEDLAVYYCQNDYSYPYTFGGGTKLEIKR
notes: Mouse monoclonal antibody from hybridoma ascites, purified on protein G; also called HER3抗体927
B2: HER3鼠源单克隆抗体1050 (antibody, V domains shown)
VH: B1 VH with E1Q, R54G, N59K, Y60C, K63N, G66A, V83L, T105S, M108V
VL: B1 VL with F30L, T69S
notes: Mouse monoclonal antibody from hybridoma ascites, purified on protein G; also called HER3抗体1050
B3: HER3鼠源单克隆抗体1044 (antibody, V domains shown)
VH: EVQLQQSGTELMKPGASVKISCKATGGTFSNYWIDWVKQRPGHGLEWIGEILPGSGGTDYNEKFKGKATFTADTSSNTAYMQLSSLTSEDSAVYYCARDDYDVFAYWGQGTLVTVSS
VL: DIVMTQAAFSNPVTLGTSASISCRSSKSLLHSNGITYLYWYLQKPGQSPQLLIYQMSNLASGVPDRFSSSGSGTDFTLRISRVEAEDVGVYYCAQNLELPWTFGGGTKLEIKR
notes: Mouse monoclonal antibody from hybridoma ascites, purified on protein G; also called HER3抗体1044
B4: HER3鼠源单克隆抗体993 (antibody, V domains shown)
VH: EVKLVESGGGLVKPGGSLKLSCAASGFTFSSYSLSWVRQTPEKRLEWVASITFGGTAYYSDSVKGRFTISRDNARNILYLQMSSLKSEDTAMYYCVRGDGYEDPMDYWGQGTSVTVSS
VL: DIVMTQTTVSLAVSLGQRATISCRASESVDSYGKSFMHWYQQKPGQPPKLLIYRASNLESGIPARFSGSGSRTDFTLTINPVEADDVSTYYCQQSNEDPYTFGGGTKLEIR
notes: Mouse monoclonal antibody from hybridoma ascites, purified on protein G; also called HER3抗体993

Columns and labels:
HER3-ECD融合蛋白 = molecular target: T1, HER3-ECD融合蛋白 (human); experiment: competition ELISA: Trx-HRG coated (10 μg/ml), HER3-ECD fusion protein 1 μg/ml pre-incubated with antibody, anti-hGH detection
T1 construct: also called HER3-ECD fusion protein

HER3 = molecular target: T2, HER3 (human, UniProt P21860 20-643, limits assumed); experiment: ProteOn XPR36 Protein Interaction Array System (SPR)
T2 construct: also called HER3抗原; HER3蛋白
T2 sequence (P21860 20-643 limits assumed): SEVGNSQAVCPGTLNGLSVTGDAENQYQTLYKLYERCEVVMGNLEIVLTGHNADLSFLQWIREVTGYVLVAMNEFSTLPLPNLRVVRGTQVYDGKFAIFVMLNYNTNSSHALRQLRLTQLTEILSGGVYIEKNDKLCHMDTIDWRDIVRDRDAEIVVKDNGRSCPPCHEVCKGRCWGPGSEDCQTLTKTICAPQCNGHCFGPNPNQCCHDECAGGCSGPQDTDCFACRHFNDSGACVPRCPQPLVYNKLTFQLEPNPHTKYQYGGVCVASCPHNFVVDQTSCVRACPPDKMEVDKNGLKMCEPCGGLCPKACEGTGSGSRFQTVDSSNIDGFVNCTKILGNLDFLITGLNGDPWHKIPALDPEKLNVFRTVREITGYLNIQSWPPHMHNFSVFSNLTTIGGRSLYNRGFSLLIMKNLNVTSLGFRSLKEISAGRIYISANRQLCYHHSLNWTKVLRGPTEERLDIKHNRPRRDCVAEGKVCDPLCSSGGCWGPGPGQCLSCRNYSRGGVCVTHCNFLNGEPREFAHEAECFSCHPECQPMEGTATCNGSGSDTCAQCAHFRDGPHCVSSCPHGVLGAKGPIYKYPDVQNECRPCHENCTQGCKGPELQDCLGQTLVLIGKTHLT

Row | Binder | IC50 (HER3-ECD融合蛋白) [nM] | Kd (HER3) [nM]
1 | B1 | 1.5 | 4.13
2 | B2 | 2.8 | 5.83
3 | B3 | 2.3 | 0.525
4 | B4 | 0.3 | 0.166
